Laboratory results reported in the nanobody polyreactivity screen of Harvey et al. (2022).

assay: yeast display, Sf9 membrane polyspecificity reagent, FACS + sequencing; frameworks hold sequencing errors
In short: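 A synthetic nanobody library was expressed on Saccharomyces cerevisiae BJ5465 by galactose induction for 36–48 hours. The library was stained for 1 hour at 4 °C with 10% biotinylated, detergent-solubilized Sf9 membrane reagent and enriched with streptavidin microbeads before FACS. Low and high (top ~1%) gates were set on anti-HA fluorescence for expression and streptavidin fluorescence for reagent binding, and each polyreactivity label reflects the gate of origin.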

Sequence	polyreactivity (PSR sort gate)
QVQLVESGGGLVQAGGSLRLSCAASGRIFPGYGMGWYRQAPGKERELVASISVGGGSTYYADSVKGRFTISRDNAKNTVYLQMNSLKPEDTAVYYCAADPSPYGDEYDYWGQGTQVTVSS	low polyreactivity
QVQLVESGGGLVQAGGSLRLSCAASGRIFPHNAMGWYRQAPGTERELVAAISSNVGSTYYADSVKGRFTISRDNAKNTVYFQMNSLKPEDTAVYYCAKYRYFAGDGDYWGQGTQVTVSS	low polyreactivity
QVQLVESGGGLVQAGGSLRLSCAASGRIFPHYARGWYRQAPGKERELFAAINVDGGRTYYADSVKGRFTISRDNAKNTVYLQLTSLKPEDTAVYYCAAKPVLYHEQDYGYAVEFNYWGQGTQVTVSS	low polyreactivity
QVQLVESGGGLVQAGGSLRLSCAASGRIFPINVMGWYRQAPGKERELVAAISGRGGSTYYADSVKGRFTISRDNAKNTVYLQMNSLKPEDTAVYYCNAVRVSIPYIYTMDYWGQGTQVTVSS	high polyreactivity
QVQLVESGGGLVQAGGSLRLSCAASGRIFPIYAMGWYRQAPGKERELVATIRYSSGTTYYADSVKGRFTISRDNAKNTVYLQMNSLKPEDTAVYYCAADSQWAYISEYDYWGQGTQVTVSS	low polyreactivity
QVQLVESGGGLVQAGGSLRLSCAASGRIFPKYAMGWYRQAPGKERELVAAISRRGSSTYYADSVKGRFTISRDNAKNTVYLQMTSLKPEDTAVYYCATDARDGHDYWGQGTQVTVSS	high polyreactivity
QVQLVESGGGLVQAGGSLRLSCAASGRIFPLYAMGWYRQAPGKERELDAAISKRDGSTSYADSVKGRFTISRDNAKNTVYLQMNSLKPVDTAVYYCNARNHVQVLFRRDYWGQGTQVTVSS	low polyreactivity
QVQLVESGGGLVQAGGSLRLSCAASGRIFPLYTMGWYRQAPGKERELVAAISVSGGRTSYADSVKGRFTISRDNAKNTVYLQMNSLKPEDTAVYSCAARYYVTSYFSSMYYWGQGTQVTVSS	high polyreactivity
QVQLVESGGGLVQAGGSLRLSCAASGRIFPPNAMGWYRQAPGKERELVAGITSSGDTTYYADSVKGRFTISRDNAKNTVYLQMTSLKPEDTAVYYCAKDEVYADDRSALFDYWGQGTQVTVSS	low polyreactivity
QVQLVESGGGLVQAGGSLRLSCAASGRIFPRNTMGWYRQATGKERELVAAISVSGGSTYYADSVKGRVTISRDNAKNTVYLQMNRLKPEDTAVFFCAAAKCYRSGSWYEYWGQGTQVTVSS	high polyreactivity
QVQLVESGGGLVQAGGSLRLSCAASGRIFPRYALGGYRQAPGKERELVAGISRSGGSTYYADSVKGRFTISRDNAKNTVYLQMNSLKPEDTAVYYCNTGGHYGARKYDYWGQGTQVTVSS	low polyreactivity
QVQLVESGGGLVQAGGSLRLSCAASGRIFPSNAMGWYRQAPGKERELVAAISFSGGSTYYADSVKGRFTISRDNAKNTVYLQMNSLKPEDTAVYYCAKSGVVDWGQGTQVTVSS	low polyreactivity
QVQLVESGGGLVQAGGSLRLSCAASGRIFPSYAMGWYRQAPGKERELVAAISDSDGSTYYADSVKGRFTISRDNAKNTVYLQMNSLKPEDTAVYYCAAEGSYPAYDYWGQGTQVTVSS	low polyreactivity
QVQLVESGGGLVQAGGSLRLSCAASGRIFPSYAMGWYRQAPGKERELVAGIRSGGGSTYYADSVKGRFTISRDNAKNTVYLQMNSLKPEDTAVYYCAADPGLYGDYPLAEDYWGQGTQVTVSS	low polyreactivity
QVQLVESGGGLVQAGGSLRLSCAASGRIFPTYAMGWSRQAPGKERELVAAISRRTTRTYYADSVKGRFTISRDNAKNTVYLQMNSLKPEDTAVYYCAARLYSSVVRYRYGYWGQGTQVTVSS	high polyreactivity
QVQLVESGGGLVQAGGSLRLSCAASGRIFPTYTMGWYRQAPGKERELLAAISGRGGNTYYADSVKGRFTISRDTAKNTVYLQMNSLKPEDTAVYYCAARYPVRNGYWGLGTQVTVSS	high polyreactivity

Sequence	polyreactivity (PSR sort gate)
QVQLVESGGGLVQAGGSLRLSCAASGRIFPTYTMGWYRQAPGKERELVAAITSGGTTYYADSVKGLFTISRDNAKNTVYLQMNSLKPEDTAVYSCAALRPRRGYYYWGQGTQVTVSS	high polyreactivity
QVQLVESGGGLVQAGGSLRLSCAASGRIFPVYAMGWYRQAPGKERELVASISSSGARTYYADSVKGRFTISRDNAKNTVYLQMNSLKPEDTAVYYCNAVRYFSSHSFISDYWGQGTQVTVSS	low polyreactivity
QVQLVESGGGLVQAGGSLRLSCAASGRIFPVYAMGWYRQAPGKERELVATITSRTGRTYYADSVKGRFTISRDNAKNTVYLQMNSLIPEDTAVSYCAARGYYSAPGYGYWGQGTQVTVSS	high polyreactivity
QVQLVESGGGLVQAGGSLRLSCAASGRIFPWYAMGWYRQAPGKERELVAAIKWDSGSTYYADSVKGRFTISRDNAKNTVYLQMNSLKPEDTAVYYCAAEYVAWYYGLYFSYDYWGQGTQVTVSS	high polyreactivity
QVQLVESGGGLVQAGGSLRLSCAASGRIFPWYTMGWYRQAPGKESELVATIRGSGGSTHYADSVKGRFTISRDNAKNTVYLQMNSLKPEDTAVYYCATDRPRYRYQYKFDYWGQGTQVTVSS	low polyreactivity
QVQLVESGGGLVQAGGSLRLSCAASGRIFPYNAMGWYRQAPGKERELVASIRTGGGRTRYADSVKGRFTISRDNAKNTVYLQMNSLKPEDTAVYYCNADSSPRWYHYPTRYDYWGQGTQVTVSS	low polyreactivity
QVQLVESGGGLVQAGGSLRLSCAASGRIFPYYAMGRYRQAPGKERELVARITRNGGTTYYADSVKGRFTISRDNAKNTVYLQMNSLKPEDTAVYYCAATYSVPYYRSWPEYDYWGQGTQVTVSS	high polyreactivity
QVQLVESGGGLVQAGGSLRLSCAASGRIFPYYAMGWYRQAPGKERELVAAITTSGGSTYYADSVKGRFTISRDNAKNTVYLQMNSLKPEDTAVYYCARDLYYYSPYDEYDSWGQGTQVTVSS	low polyreactivity
QVQLVESGGGLVQAGGSLRLSCAASGRIFPYYAMGWYRQAPGKERELVASIRYSAGNTYYADSVKGRFTISRDNAKNTVYLQMNSLKPEDTAVYYCAKLYRSYTIRPVWGRYDYWGQGTQVTVSS	low polyreactivity
QVQLVESGGGLVQAGGSLRLSCAASGRIFPYYAMGWYRQAPGKERELVATISSGGRTNYADTVMGRFTISRDNAKNTVYLQMNSLKPEDTAVYYCAADYRKSRVFYGLYYWGQGPQVTVSS	high polyreactivity
QVQLVESGGGLVQAGGSLRLSCAASGRIFPYYGMGWYRHAPGKERELVAAITWDSGSTYYADSVKGRFTISRDNAKNTVYLQMNSLKPEDTAVYYCAAPISFYSPAEYYYWGQGTQVTVSS	low polyreactivity
QVQLVESGGGLVQAGGSLRLSCAASGRIFPYYTMGWYRQAPGKERELVAAISSSGGSTYYADSVKGRFTISRDNAKNTVYLQMNSLKPEDTAVYYCNIRRHSLYGGTTTRYDYWGQGTQVTVSS	high polyreactivity
QVQLVESGGGLVQAGGSLRLSCAASGRIFPYYVMGWYRQAPGKERELVASISSGGNTNYADSVKGRFTISRDNAKNTVYLQMNSLKPEDTAVYYCAARWRRKGYYWARFDYWGQGTQVTVSS	high polyreactivity
QVQLVESGGGLVQAGGSLRLSCAASGRIFQDNAMGWYRQTPGKERELVAAISRRGGSTYYADSVKGRFTISRDNAKYTVYLQMNSMKPEDTAVYYCAAKWSVEEDYWGQGTQVTVSS	high polyreactivity
QVQLVESGGGLVQAGGSLRLSCAASGRIFQGNAMGWYRQATGKERELVAAITTSGGSTYYADSVKGRFTISRDNAKNTVYLQMNSLKPEDTAVYYCNVDPRKRSYDYWGQGTQVTVSS	high polyreactivity
